Like-named read-outs stand apart in the source and are kept apart here. *1 amine or outer side, *2 acyl side, *3 side chain or, on linkers, in order; H or OH if unused. Where no end group is shown, it is not given here. Side-chain parts run from the residue outwards. The star is where a group is joined. C18 diacid = O=C(O)CCCCCCCCCCCCCCCCC(=O)*; C16 diacid = O=C(O)CCCCCCCCCCCCCCC(=O)*; γGlu = O=C(O)[C@H](CCC(=O)[*:2])N[*:1]; AEEA = NCCOCCOCC(=O)O
B1: AT368 (peptide)
peptide: TFISDYKIAMDKIHQQDFVNWLLAQKGKKNDWKHNITQ
HELM: PEPTIDE1{T.F.I.S.D.Y.K.I.A.M.D.K.I.H.Q.Q.D.F.V.N.W.L.L.A.Q.K.G.K.K.N.D.W.K.H.N.I.T.Q}|PEPTIDE2{[O=C(O)CCCCCCCCCCCCCCC(=O)[*:2]].[gGlu]}$PEPTIDE1,PEPTIDE2,7:R3-2:R2$$$V2.0; N-terminus assumed
SMILES: CC[C@H](C)[C@H](NC(=O)[C@H](CCCCNC(=O)CC[C@H](NC(=O)CCCCCCCCCCCCCCC(=O)O)C(=O)O)NC(=O)[C@H](Cc1ccc(O)cc1)NC(=O)[C@H](CC(=O)O)NC(=O)[C@H](CO)NC(=O)[C@@H](NC(=O)[C@H](Cc1ccccc1)NC(=O)[C@@H](N)[C@@H](C)O)[C@@H](C)CC)C(=O)N[C@@H](C)C(=O)N[C@@H](CCSC)C(=O)N[C@@H](CC(=O)O)C(=O)N[C@@H](CCCCN)C(=O)N[C@H](C(=O)N[C@@H](Cc1c[nH]cn1)C(=O)N[C@@H](CCC(N)=O)C(=O)N[C@@H](CCC(N)=O)C(=O)N[C@@H](CC(=O)O)C(=O)N[C@@H](Cc1ccccc1)C(=O)N[C@H](C(=O)N[C@@H](CC(N)=O)C(=O)N[C@@H](Cc1c[nH]c2ccccc12)C(=O)N[C@@H](CC(C)C)C(=O)N[C@@H](CC(C)C)C(=O)N[C@@H](C)C(=O)N[C@@H](CCC(N)=O)C(=O)N[C@@H](CCCCN)C(=O)NCC(=O)N[C@@H](CCCCN)C(=O)N[C@@H](CCCCN)C(=O)N[C@@H](CC(N)=O)C(=O)N[C@@H](CC(=O)O)C(=O)N[C@@H](Cc1c[nH]c2ccccc12)C(=O)N[C@@H](CCCCN)C(=O)N[C@@H](Cc1c[nH]cn1)C(=O)N[C@@H](CC(N)=O)C(=O)N[C@H](C(=O)N[C@H](C(=O)N[C@@H](CCC(N)=O)C(=O)O)[C@@H](C)O)[C@@H](C)CC)C(C)C)[C@@H](C)CC
B2: AT420 (peptide)
peptide: SGTFISDYSIAMDKIK([AEEA-AEEA-AEEA-γGlu-C16 diacid])QQDFVNWLLAQKGKKNDW-OH
modifications: N-terminus assumed
SMILES: CC[C@H](C)[C@H](NC(=O)[C@H](CO)NC(=O)[C@H](Cc1ccc(O)cc1)NC(=O)[C@H](CC(=O)O)NC(=O)[C@H](CO)NC(=O)[C@@H](NC(=O)[C@H](Cc1ccccc1)NC(=O)[C@@H](NC(=O)CNC(=O)[C@@H](N)CO)[C@@H](C)O)[C@@H](C)CC)C(=O)N[C@@H](C)C(=O)N[C@@H](CCSC)C(=O)N[C@@H](CC(=O)O)C(=O)N[C@@H](CCCCN)C(=O)N[C@H](C(=O)N[C@@H](CCCCNC(=O)COCCOCCNC(=O)COCCOCCNC(=O)COCCOCCNC(=O)CC[C@H](NC(=O)CCCCCCCCCCCCCCC(=O)O)C(=O)O)C(=O)N[C@@H](CCC(N)=O)C(=O)N[C@@H](CCC(N)=O)C(=O)N[C@@H](CC(=O)O)C(=O)N[C@@H](Cc1ccccc1)C(=O)N[C@H](C(=O)N[C@@H](CC(N)=O)C(=O)N[C@@H](Cc1c[nH]c2ccccc12)C(=O)N[C@@H](CC(C)C)C(=O)N[C@@H](CC(C)C)C(=O)N[C@@H](C)C(=O)N[C@@H](CCC(N)=O)C(=O)N[C@@H](CCCCN)C(=O)NCC(=O)N[C@@H](CCCCN)C(=O)N[C@@H](CCCCN)C(=O)N[C@@H](CC(N)=O)C(=O)N[C@@H](CC(=O)O)C(=O)N[C@@H](Cc1c[nH]c2ccccc12)C(=O)O)C(C)C)[C@@H](C)CC
B3: AT367 (peptide)
peptide: TFISDYKIAMDKIHQQDFVNWLLAQKGKKNDWKHN
HELM: PEPTIDE1{T.F.I.S.D.Y.K.I.A.M.D.K.I.H.Q.Q.D.F.V.N.W.L.L.A.Q.K.G.K.K.N.D.W.K.H.N}|PEPTIDE2{[O=C(O)CCCCCCCCCCCCCCC(=O)[*:2]].[gGlu]}$PEPTIDE1,PEPTIDE2,7:R3-2:R2$$$V2.0; N-terminus assumed
SMILES: CC[C@H](C)[C@H](NC(=O)[C@H](CCCCNC(=O)CC[C@H](NC(=O)CCCCCCCCCCCCCCC(=O)O)C(=O)O)NC(=O)[C@H](Cc1ccc(O)cc1)NC(=O)[C@H](CC(=O)O)NC(=O)[C@H](CO)NC(=O)[C@@H](NC(=O)[C@H](Cc1ccccc1)NC(=O)[C@@H](N)[C@@H](C)O)[C@@H](C)CC)C(=O)N[C@@H](C)C(=O)N[C@@H](CCSC)C(=O)N[C@@H](CC(=O)O)C(=O)N[C@@H](CCCCN)C(=O)N[C@H](C(=O)N[C@@H](Cc1c[nH]cn1)C(=O)N[C@@H](CCC(N)=O)C(=O)N[C@@H](CCC(N)=O)C(=O)N[C@@H](CC(=O)O)C(=O)N[C@@H](Cc1ccccc1)C(=O)N[C@H](C(=O)N[C@@H](CC(N)=O)C(=O)N[C@@H](Cc1c[nH]c2ccccc12)C(=O)N[C@@H](CC(C)C)C(=O)N[C@@H](CC(C)C)C(=O)N[C@@H](C)C(=O)N[C@@H](CCC(N)=O)C(=O)N[C@@H](CCCCN)C(=O)NCC(=O)N[C@@H](CCCCN)C(=O)N[C@@H](CCCCN)C(=O)N[C@@H](CC(N)=O)C(=O)N[C@@H](CC(=O)O)C(=O)N[C@@H](Cc1c[nH]c2ccccc12)C(=O)N[C@@H](CCCCN)C(=O)N[C@@H](Cc1c[nH]cn1)C(=O)N[C@@H](CC(N)=O)C(=O)O)C(C)C)[C@@H](C)CC
B4: AT419 (peptide)
peptide: SGTFISDYSIAMDKIK([AEEA-AEEA-γGlu-C16 diacid])QQDFVNWLLAQKGKKNDW-OH
modifications: N-terminus assumed
SMILES: CC[C@H](C)[C@H](NC(=O)[C@H](CO)NC(=O)[C@H](Cc1ccc(O)cc1)NC(=O)[C@H](CC(=O)O)NC(=O)[C@H](CO)NC(=O)[C@@H](NC(=O)[C@H](Cc1ccccc1)NC(=O)[C@@H](NC(=O)CNC(=O)[C@@H](N)CO)[C@@H](C)O)[C@@H](C)CC)C(=O)N[C@@H](C)C(=O)N[C@@H](CCSC)C(=O)N[C@@H](CC(=O)O)C(=O)N[C@@H](CCCCN)C(=O)N[C@H](C(=O)N[C@@H](CCCCNC(=O)COCCOCCNC(=O)COCCOCCNC(=O)CC[C@H](NC(=O)CCCCCCCCCCCCCCC(=O)O)C(=O)O)C(=O)N[C@@H](CCC(N)=O)C(=O)N[C@@H](CCC(N)=O)C(=O)N[C@@H](CC(=O)O)C(=O)N[C@@H](Cc1ccccc1)C(=O)N[C@H](C(=O)N[C@@H](CC(N)=O)C(=O)N[C@@H](Cc1c[nH]c2ccccc12)C(=O)N[C@@H](CC(C)C)C(=O)N[C@@H](CC(C)C)C(=O)N[C@@H](C)C(=O)N[C@@H](CCC(N)=O)C(=O)N[C@@H](CCCCN)C(=O)NCC(=O)N[C@@H](CCCCN)C(=O)N[C@@H](CCCCN)C(=O)N[C@@H](CC(N)=O)C(=O)N[C@@H](CC(=O)O)C(=O)N[C@@H](Cc1c[nH]c2ccccc12)C(=O)O)C(C)C)[C@@H](C)CC
B5: AT418 (peptide)
peptide: EGTFISDYSIAMDKIK([AEEA-AEEA-AEEA-γGlu-C18 diacid])QQDFVNWLLAQKGKKNDW-OH
modifications: N-terminus assumed
SMILES: CC[C@H](C)[C@H](NC(=O)[C@H](CO)NC(=O)[C@H](Cc1ccc(O)cc1)NC(=O)[C@H](CC(=O)O)NC(=O)[C@H](CO)NC(=O)[C@@H](NC(=O)[C@H](Cc1ccccc1)NC(=O)[C@@H](NC(=O)CNC(=O)[C@@H](N)CCC(=O)O)[C@@H](C)O)[C@@H](C)CC)C(=O)N[C@@H](C)C(=O)N[C@@H](CCSC)C(=O)N[C@@H](CC(=O)O)C(=O)N[C@@H](CCCCN)C(=O)N[C@H](C(=O)N[C@@H](CCCCNC(=O)COCCOCCNC(=O)COCCOCCNC(=O)COCCOCCNC(=O)CC[C@H](NC(=O)CCCCCCCCCCCCCCCCC(=O)O)C(=O)O)C(=O)N[C@@H](CCC(N)=O)C(=O)N[C@@H](CCC(N)=O)C(=O)N[C@@H](CC(=O)O)C(=O)N[C@@H](Cc1ccccc1)C(=O)N[C@H](C(=O)N[C@@H](CC(N)=O)C(=O)N[C@@H](Cc1c[nH]c2ccccc12)C(=O)N[C@@H](CC(C)C)C(=O)N[C@@H](CC(C)C)C(=O)N[C@@H](C)C(=O)N[C@@H](CCC(N)=O)C(=O)N[C@@H](CCCCN)C(=O)NCC(=O)N[C@@H](CCCCN)C(=O)N[C@@H](CCCCN)C(=O)N[C@@H](CC(N)=O)C(=O)N[C@@H](CC(=O)O)C(=O)N[C@@H](Cc1c[nH]c2ccccc12)C(=O)O)C(C)C)[C@@H](C)CC

Assays:
human GIP receptor [1] = biological target: T1, human GIP receptor (human, UniProt P48546 22-466); experiment: cell-based or functional assay
T1 sequence (looked up): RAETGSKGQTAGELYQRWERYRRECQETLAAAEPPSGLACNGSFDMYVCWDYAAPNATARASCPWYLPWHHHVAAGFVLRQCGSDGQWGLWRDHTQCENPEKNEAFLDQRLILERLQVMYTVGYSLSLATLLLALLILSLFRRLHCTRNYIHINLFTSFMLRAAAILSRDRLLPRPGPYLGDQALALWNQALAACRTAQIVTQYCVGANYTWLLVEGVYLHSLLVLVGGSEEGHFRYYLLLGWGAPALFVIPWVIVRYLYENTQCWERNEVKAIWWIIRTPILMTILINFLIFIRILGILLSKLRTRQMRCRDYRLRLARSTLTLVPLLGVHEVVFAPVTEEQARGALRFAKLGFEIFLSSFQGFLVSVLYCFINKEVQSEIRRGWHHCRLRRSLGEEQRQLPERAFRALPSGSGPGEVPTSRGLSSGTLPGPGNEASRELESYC

human GIP receptor [2] = biological target: T1, human GIP receptor; experiment: cell-based or functional assay; remark: listed apart in the source

| Binder | cAMP agonism % Emax (human GIP receptor [1]) [%] | cAMP antagonism (human GIP receptor [1]) [nM] | cAMP antagonism % inhib (human GIP receptor [1]) [%] | cAMP antagonism pIC50 (human GIP receptor [1]) | cAMP antagonism (human GIP receptor [2]) [nM] | cAMP antagonism % inhib (human GIP receptor [2]) [%] | cAMP antagonism log (human GIP receptor [2]) [log M] | cAMP agonism Emax (human GIP receptor [2]) |
| --- | --- | --- | --- | --- | --- | --- | --- | --- |
| EGTFISDYSIALDKIKQQDFVNWLLAQKPSSGAPPPS (βGlu at 3; Aib at 13; Nle at 14; K18: C16-diacid; C-term COOH) [AT703] | 0 | 4.3 | 93 | 8.6 | – | – | – | – |
| B1 | – | – | – | – | 9 | 100 | -8.1 | – |
| B2 | – | – | – | – | 237 | 100 | -6.6 | – |
| B3 | – | – | – | – | 6 | 100 | -8.3 | – |
| B4 | – | – | – | – | 215 | 78 | -6.7 | 4.9 |
| B5 | – | – | – | – | 68 | 95 | -7.2 | 7.8 |

— patent publication US20220298218A1 (ANTAG THERAPEUTICS, published 2022)
